Measurements from PMC10786891, “Massively parallel profiling of RNA-targeting CRISPR-Cas13d”.

T1: EsCas13d, nuclease-dead (Eubacterium siraeum, UniProt B0MS50, R295A;H300A;R849A;H854A)
T1 sequence: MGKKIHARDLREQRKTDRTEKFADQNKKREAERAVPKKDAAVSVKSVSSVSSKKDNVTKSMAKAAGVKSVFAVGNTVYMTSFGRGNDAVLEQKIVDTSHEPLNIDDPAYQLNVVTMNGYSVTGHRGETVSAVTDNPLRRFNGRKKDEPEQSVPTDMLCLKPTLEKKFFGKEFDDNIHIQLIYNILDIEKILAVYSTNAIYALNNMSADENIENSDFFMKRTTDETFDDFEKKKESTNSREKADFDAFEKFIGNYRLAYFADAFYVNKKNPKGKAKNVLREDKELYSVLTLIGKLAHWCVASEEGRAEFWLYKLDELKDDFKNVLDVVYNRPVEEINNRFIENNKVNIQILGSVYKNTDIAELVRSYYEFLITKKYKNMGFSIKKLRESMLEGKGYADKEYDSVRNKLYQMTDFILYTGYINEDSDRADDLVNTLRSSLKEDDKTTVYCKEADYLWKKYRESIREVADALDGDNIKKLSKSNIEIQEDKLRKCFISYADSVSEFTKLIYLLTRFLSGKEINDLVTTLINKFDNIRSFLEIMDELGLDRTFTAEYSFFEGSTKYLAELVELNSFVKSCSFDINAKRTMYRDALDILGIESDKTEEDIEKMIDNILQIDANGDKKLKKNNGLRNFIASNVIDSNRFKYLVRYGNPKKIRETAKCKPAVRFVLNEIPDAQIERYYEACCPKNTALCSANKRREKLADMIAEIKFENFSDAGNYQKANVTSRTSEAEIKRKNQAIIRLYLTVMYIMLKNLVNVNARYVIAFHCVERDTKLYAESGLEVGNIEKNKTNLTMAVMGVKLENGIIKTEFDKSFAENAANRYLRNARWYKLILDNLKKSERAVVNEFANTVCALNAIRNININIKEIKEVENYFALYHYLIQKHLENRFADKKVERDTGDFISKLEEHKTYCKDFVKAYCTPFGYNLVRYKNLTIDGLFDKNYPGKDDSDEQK

B1: target 1 insC 3' of 5,insA 3' of 3 (mixed)
RNA 1: CACCCGUGCAAAAAUGCAGGGGUCUAAAACUGAGCGGAUAACCUCUCUAUGG
RNA 2: GGGAAUGGAUCCACAUCUACGAAUUCGUACCAUAGAGAGGUUAUCCGCCUACACCGAGAUCGGAAGAGCACACGU
B2: target 1 insA 3' of 5,insA 3' of 5 (mixed)
RNA 1: CACCCGUGCAAAAAUGCAGGGGUCUAAAACUGAGCGGAUAACCUCUCUAUGG
RNA 2: GGGAAUGGAUCCACAUCUACGAAUUCGUACCAUAGAGAGGUUAUCCGAACUCACCGAGAUCGGAAGAGCACACGU
B3: target 1 U3C,C4U (mixed)
RNA 1: CACCCGUGCAAAAAUGCAGGGGUCUAAAACUGAGCGGAUAACCUCUCUAUGG
RNA 2: GGGAAUGGAUCCACAUCUACGAAUUCGUACCAUAGAGAGGUUAUCCGUCCACCGAGAUCGGAAGAGCACACGU
B4: target 1 insC 3' of 14,insC 3' of 13 (mixed)
RNA 1: CACCCGUGCAAAAAUGCAGGGGUCUAAAACUGAGCGGAUAACCUCUCUAUGG
RNA 2: GGGAAUGGAUCCACAUCUACGAAUUCGUACCAUAGAGACGCGUUAUCCGCUCACCGAGAUCGGAAGAGCACACGU
B5: target 1 insA 3' of 12,insA 3' of 12 (mixed)
RNA 1: CACCCGUGCAAAAAUGCAGGGGUCUAAAACUGAGCGGAUAACCUCUCUAUGG
RNA 2: GGGAAUGGAUCCACAUCUACGAAUUCGUACCAUAGAGAGGAAUUAUCCGCUCACCGAGAUCGGAAGAGCACACGU
B6: target 1 A1G,C7A (mixed)
RNA 1: CACCCGUGCAAAAAUGCAGGGGUCUAAAACUGAGCGGAUAACCUCUCUAUGG
RNA 2: GGGAAUGGAUCCACAUCUACGAAUUCGUACCAUAGAGAGGUUAUACGCUCGCCGAGAUCGGAAGAGCACACGU
B7: target 1 insC 3' of 19,insA 3' of 8 (mixed)
RNA 1: CACCCGUGCAAAAAUGCAGGGGUCUAAAACUGAGCGGAUAACCUCUCUAUGG
RNA 2: GGGAAUGGAUCCACAUCUACGAAUUCGUACCAUCAGAGAGGUUAUACCGCUCACCGAGAUCGGAAGAGCACACGU
B8: target 1 insA 3' of 13,insC 3' of 8 (mixed)
RNA 1: CACCCGUGCAAAAAUGCAGGGGUCUAAAACUGAGCGGAUAACCUCUCUAUGG
RNA 2: GGGAAUGGAUCCACAUCUACGAAUUCGUACCAUAGAGAGAGUUAUCCCGCUCACCGAGAUCGGAAGAGCACACGU
B9: target 1 insU 3' of 7,insC 3' of 5 (mixed)
RNA 1: CACCCGUGCAAAAAUGCAGGGGUCUAAAACUGAGCGGAUAACCUCUCUAUGG
RNA 2: GGGAAUGGAUCCACAUCUACGAAUUCGUACCAUAGAGAGGUUAUCUCGCCUCACCGAGAUCGGAAGAGCACACGU
B10: target 1 G12U,A14U (mixed)
RNA 1: CACCCGUGCAAAAAUGCAGGGGUCUAAAACUGAGCGGAUAACCUCUCUAUGG
RNA 2: GGGAAUGGAUCCACAUCUACGAAUUCGUACCAUAGAGUGUUUAUCCGCUCACCGAGAUCGGAAGAGCACACGU
B11: target 1 U3A,C7U (mixed)
RNA 1: CACCCGUGCAAAAAUGCAGGGGUCUAAAACUGAGCGGAUAACCUCUCUAUGG
RNA 2: GGGAAUGGAUCCACAUCUACGAAUUCGUACCAUAGAGAGGUUAUUCGCACACCGAGAUCGGAAGAGCACACGU
B12: target 1 U3G,C4G (mixed)
RNA 1: CACCCGUGCAAAAAUGCAGGGGUCUAAAACUGAGCGGAUAACCUCUCUAUGG
RNA 2: GGGAAUGGAUCCACAUCUACGAAUUCGUACCAUAGAGAGGUUAUCCGGGCACCGAGAUCGGAAGAGCACACGU
B13: target 1 insC 3' of 14,insU 3' of 6 (mixed)
RNA 1: CACCCGUGCAAAAAUGCAGGGGUCUAAAACUGAGCGGAUAACCUCUCUAUGG
RNA 2: GGGAAUGGAUCCACAUCUACGAAUUCGUACCAUAGAGACGGUUAUCCUGCUCACCGAGAUCGGAAGAGCACACGU
B14: target 1 insC 3' of 20,insA 3' of 19 (mixed)
RNA 1: CACCCGUGCAAAAAUGCAGGGGUCUAAAACUGAGCGGAUAACCUCUCUAUGG
RNA 2: GGGAAUGGAUCCACAUCUACGAAUUCGUACCACUAAGAGAGGUUAUCCGCUCACCGAGAUCGGAAGAGCACACGU
B15: target 1 insU 3' of 21,insU 3' of 12 (mixed)
RNA 1: CACCCGUGCAAAAAUGCAGGGGUCUAAAACUGAGCGGAUAACCUCUCUAUGG
RNA 2: GGGAAUGGAUCCACAUCUACGAAUUCGUACCUAUAGAGAGGUUUAUCCGCUCACCGAGAUCGGAAGAGCACACGU
B16: target 1 C4G,G13A (mixed)
RNA 1: CACCCGUGCAAAAAUGCAGGGGUCUAAAACUGAGCGGAUAACCUCUCUAUGG
RNA 2: GGGAAUGGAUCCACAUCUACGAAUUCGUACCAUAGAGAAGUUAUCCGGUCACCGAGAUCGGAAGAGCACACGU
B17: target 1 insA 3' of 15,insA 3' of 6 (mixed)
RNA 1: CACCCGUGCAAAAAUGCAGGGGUCUAAAACUGAGCGGAUAACCUCUCUAUGG
RNA 2: GGGAAUGGAUCCACAUCUACGAAUUCGUACCAUAGAGAAGGUUAUCCAGCUCACCGAGAUCGGAAGAGCACACGU
B18: target 1 insC 3' of 12,insA 3' of 3 (mixed)
RNA 1: CACCCGUGCAAAAAUGCAGGGGUCUAAAACUGAGCGGAUAACCUCUCUAUGG
RNA 2: GGGAAUGGAUCCACAUCUACGAAUUCGUACCAUAGAGAGGCUUAUCCGCUACACCGAGAUCGGAAGAGCACACGU
B19: target 1 insA 3' of 17,insU 3' of 13 (mixed)
RNA 1: CACCCGUGCAAAAAUGCAGGGGUCUAAAACUGAGCGGAUAACCUCUCUAUGG
RNA 2: GGGAAUGGAUCCACAUCUACGAAUUCGUACCAUAGAAGAGUGUUAUCCGCUCACCGAGAUCGGAAGAGCACACGU
B20: target 1 C4A,U11C (mixed)
RNA 1: CACCCGUGCAAAAAUGCAGGGGUCUAAAACUGAGCGGAUAACCUCUCUAUGG
RNA 2: GGGAAUGGAUCCACAUCUACGAAUUCGUACCAUAGAGAGGCUAUCCGAUCACCGAGAUCGGAAGAGCACACGU
B21: target 1 U11C,G13C (mixed)
RNA 1: CACCCGUGCAAAAAUGCAGGGGUCUAAAACUGAGCGGAUAACCUCUCUAUGG
RNA 2: GGGAAUGGAUCCACAUCUACGAAUUCGUACCAUAGAGACGCUAUCCGCUCACCGAGAUCGGAAGAGCACACGU
B22: target 1 U3C,G13C (mixed)
RNA 1: CACCCGUGCAAAAAUGCAGGGGUCUAAAACUGAGCGGAUAACCUCUCUAUGG
RNA 2: GGGAAUGGAUCCACAUCUACGAAUUCGUACCAUAGAGACGUUAUCCGCCCACCGAGAUCGGAAGAGCACACGU
B23: target 1 insC 3' of 19,insC 3' of 15 (mixed)
RNA 1: CACCCGUGCAAAAAUGCAGGGGUCUAAAACUGAGCGGAUAACCUCUCUAUGG
RNA 2: GGGAAUGGAUCCACAUCUACGAAUUCGUACCAUCAGAGCAGGUUAUCCGCUCACCGAGAUCGGAAGAGCACACGU
B24: target 1 A9G,C22U (mixed)
RNA 1: CACCCGUGCAAAAAUGCAGGGGUCUAAAACUGAGCGGAUAACCUCUCUAUGG
RNA 2: GGGAAUGGAUCCACAUCUACGAAUUCGUAUCAUAGAGAGGUUGUCCGCUCACCGAGAUCGGAAGAGCACACGU
B25: target 1 insU 3' of 21,insA 3' of 13 (mixed)
RNA 1: CACCCGUGCAAAAAUGCAGGGGUCUAAAACUGAGCGGAUAACCUCUCUAUGG
RNA 2: GGGAAUGGAUCCACAUCUACGAAUUCGUACCUAUAGAGAGAGUUAUCCGCUCACCGAGAUCGGAAGAGCACACGU
B26: target 1 C4G,U8C (mixed)
RNA 1: CACCCGUGCAAAAAUGCAGGGGUCUAAAACUGAGCGGAUAACCUCUCUAUGG
RNA 2: GGGAAUGGAUCCACAUCUACGAAUUCGUACCAUAGAGAGGUUACCCGGUCACCGAGAUCGGAAGAGCACACGU
B27: target 1 complement block 6-11 (mixed)
RNA 1: CACCCGUGCAAAAAUGCAGGGGUCUAAAACUGAGCGGAUAACCUCUCUAUGG
RNA 2: GGGAAUGGAUCCACAUCUACGAAUUCGUACCAUAGAGAGGAAUAGGGCUCACCGAGAUCGGAAGAGCACACGU
B28: target 1 insC 3' of 15,insA 3' of 6 (mixed)
RNA 1: CACCCGUGCAAAAAUGCAGGGGUCUAAAACUGAGCGGAUAACCUCUCUAUGG
RNA 2: GGGAAUGGAUCCACAUCUACGAAUUCGUACCAUAGAGCAGGUUAUCCAGCUCACCGAGAUCGGAAGAGCACACGU

target: T1, EsCas13d, nuclease-dead; test: crRNA (strand 1, pre-loaded); Mg2+; 40 mM Tris-HCl pH 7.5, 150 mM NaCl, 6 mM MgCl2, 1 mM DTT, 0.1% Tween-20, 0.2 mg/ml BSA; 25 C; 10 min per concentration, then washed; conditions: tags: His6-TwinStrep-SUMO cleaved; N-terminal SNAP kept (SNAP-Surface 488); label: 3' end held by stalled T7 RNA polymerase

Row | Binder | Kd [nM]
1 | B1 | 30 ± 4
2 | B2 | 8.5 ± 0.7
3 | B3 | 49 ± 8
4 | B4 | 53 ± 9
5 | B5 | 14.3 ± 0.7
6 | B6 | 8.7 ± 0.5
7 | B7 | 47 ± 4
8 | B8 | 6.4 ± 0.8
9 | B9 | 12.5 ± 0.5
10 | B10 | 25 ± 9
11 | B11 | 5.4 ± 0.4
12 | B12 | 5.2 ± 0.4
13 | B13 | 53 ± 25
14 | B14 | 9.1 ± 1
15 | B15 | 21.5 ± 1.3
16 | B16 | 7.3 ± 0.9
17 | B17 | 14.4 ± 1.4
18 | B18 | 9.3 ± 0.8
19 | B19 | 22 ± 4
20 | B20 | 10 ± 0.9
21 | B21 | 62 ± 23
22 | B22 | 36 ± 4
23 | B23 | 45 ± 5
24 | B24 | 27.3 ± 2.3
25 | B25 | 21.3 ± 1.3
26 | B26 | 4.64 ± 0.25
27 | B27 | 14.5 ± 1.2
28 | B28 | 22.4 ± 1.5
